Patent US20190016794A1 (Boehringer Ingelheim, published 2019)
Values joined by “and” are separate entries in the source; they are usually repeats but may differ in a detail not shown here. Equal values may be shown once.

T1: recombinant human IL23 (human, UniProt P29460 23-328)
T1 sequence 1: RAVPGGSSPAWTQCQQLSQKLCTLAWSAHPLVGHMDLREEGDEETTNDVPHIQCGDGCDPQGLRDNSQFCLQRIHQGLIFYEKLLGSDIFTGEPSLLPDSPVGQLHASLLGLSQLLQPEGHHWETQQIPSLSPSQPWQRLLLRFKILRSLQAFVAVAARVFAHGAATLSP
T1 sequence 2: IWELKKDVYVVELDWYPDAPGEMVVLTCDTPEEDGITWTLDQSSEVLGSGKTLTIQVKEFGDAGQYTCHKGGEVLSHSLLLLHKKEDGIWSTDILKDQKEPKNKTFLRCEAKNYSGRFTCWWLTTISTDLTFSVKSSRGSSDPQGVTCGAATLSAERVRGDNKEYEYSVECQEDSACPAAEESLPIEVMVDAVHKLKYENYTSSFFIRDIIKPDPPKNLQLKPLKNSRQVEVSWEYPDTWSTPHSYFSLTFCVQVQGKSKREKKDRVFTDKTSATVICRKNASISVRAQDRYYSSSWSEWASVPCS

T2: recombinant cynomolgus IL23 (cynomolgus)
T2 chain 1: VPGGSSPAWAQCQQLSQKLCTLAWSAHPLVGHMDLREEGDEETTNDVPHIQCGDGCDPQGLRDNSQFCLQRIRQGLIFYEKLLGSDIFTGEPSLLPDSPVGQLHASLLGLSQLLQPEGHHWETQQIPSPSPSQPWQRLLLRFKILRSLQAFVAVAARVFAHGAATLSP
T2 chain 2: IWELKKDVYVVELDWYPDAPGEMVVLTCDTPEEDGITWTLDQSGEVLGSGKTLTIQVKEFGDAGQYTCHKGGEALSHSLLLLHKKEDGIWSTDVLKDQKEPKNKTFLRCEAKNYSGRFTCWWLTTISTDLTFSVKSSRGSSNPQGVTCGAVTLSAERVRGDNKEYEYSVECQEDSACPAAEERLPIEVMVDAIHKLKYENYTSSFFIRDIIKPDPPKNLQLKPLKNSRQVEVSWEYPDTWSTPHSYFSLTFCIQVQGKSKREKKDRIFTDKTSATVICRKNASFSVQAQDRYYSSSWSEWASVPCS

B1: Control antibody 2 (TNFa monoclonal antibody) (antibody, V domains shown)
VH: QVQLVESGGGVVQPGRSLRLSCAASGFIFSSYAMHWVRQAPGNGLEWVAFMSYDGSNKKYADSVKGRFTISRDNSKNTLYLQMNSLRAEDTAVYYCARDRGIAAGGNYYYYGMDVWGQGTTVTVSS
VL: EIVLTQSPATLSLSPGERATLSCRASQSVYSYLAWYQQKPGQAPRLLIYDASNRATGIPARFSGSGSGTDFTLTISSLEPEDFAVYYCQQRSNWPPFTFGPGTKVDIK
notes: Monoclonal antibody
B2: Control Antibody 3 (IL23 monoclonal antibody) (antibody, V domains shown)
VH: QVQLVQSGAEVKKPGSSVKVSCKASGYTFTDQTIHWMRQAPGQGLEWIGYIYPRDDSPKYNENFKGKVTITADKSTSTAYMELSSLRSEDTAVYYCAIPDRSGYAWFIYWGQGTLVTVSS
VL: DIQMTQSPSSLSASVGDRVTITCKASRDVAIAVAWYQQKPGKVPKLLIYWASTRHTGVPSRFSGSGSRTDFTLTISSLQPEDVADYFCHQYSSYPFTFGSGTKLEIK
B3: Compound P (bispecific antibody)
chain 1: not shown
chain 2: EIVLTQSPATLSLSPGERATLSCRASQSVYSYLAWYQQKPGQAPRLLIYDASNRATGIPARFSGSGSGTDFTLTISSLEPEDFAVYYCQQRSNWPPFTFGPGTKVDIKGGGSGGGGQVQLVQSGAEVKKPGSSVKVSCKASGYTFTDQTIHWMRQAPGQGLEWIGYIYPRDDSPKYNENFKGKVTITADKSTSTAYMELSSLRSEDTAVYYCAIPDRSGYAWFIYWGQGTLVTVSSVEPKSSRTVAAPSVFIFPPSDEQLKSGTASVVCLLNNFYPREAKVQWKVDNALQSGNSQESVTEQDSKDSTYSLSSTLTLSKADYEKHKVYACEVTHQGLSSPVTKSFNRGEC
B4: Compound F (bispecific antibody)
chain 1: DIQMTQSPSSLSASVGDRVTITCKASRDVAIAVAWYQQKPGKVPKLLIYWASTRHTGVPSRFSGSGSRTDFTLTISSLQPEDVADYFCHQYSSYPFTFGSGTKLEIKGGGSGGGGQVQLVESGGGVVQPGRSLRLSCAASGFIFSSYAMHWVRQAPGNGLEWVAFMSYDGSNKKYADSVKGRFTISRDNSKNTLYLQMNSLRAEDTAVYYCARDRGIAAGGNYYYYGMDVWGQGTTVTVSSFNRGESASTKGPSVFPLAPSSKSTSGGTAALGCLVKDYFPEPVTVSWNSGALTSGVHTFPAVLQSSGLYSLSSVVTVPSSSLGTQTYICNVNHKPSNTKVDKRVEPKSCDKTHTCPPCPAPEAAGGPSVFLFPPKPKDTLYITREPEVTCVVVDVSHEDPEVKFNWYVDGVEVHNAKTKPREEQYNSTYRVVSVLTVLHQDWLNGKEYKCKVSNKALPAPIEKTISKAKGQPREPQVYTLPPSREEMTKNQVSLTCLVKGFYPSDIAVEWESNGQPENNYKTTPPVLDSDGSFFLYSKLTVDKSRWQQGNVFSCSVMHEALHNHYTQKSLSLSPGK
chain 2: B3 chain 2
B5: Compound G (bispecific antibody)
chain 1: EIVLTQSPATLSLSPGERATLSCRASQSVYSYLAWYQQKPGQAPRLLIYDASNRATGIPARFSGSGSGTDFTLTISSLEPEDFAVYYCQQRSNWPPFTFGPGTKVDIKGGGSGGGGQVQLVQSGAEVKKPGSSVKVSCKASGYTFTDQTIHWMRQAPGQGLEWIGYIYPRDDSPKYNENFKGKVTITADKSTSTAYMELSSLRSEDTAVYYCAIPDRSGYAWFIYWGQGTLVTVSSLGGGSGASTKGPSVFPLAPSSKSTSGGTAALGCLVKDYFPEPVTVSWNSGALTSGVHTFPAVLQSSGLYSLSSVVTVPSSSLGTQTYICNVNHKPSNTKVDKRVEPKSCDKTHTCPPCPAPEAAGGPSVFLFPPKPKDTLYITREPEVTCVVVDVSHEDPEVKFNWYVDGVEVHNAKTKPREEQYNSTYRVVSVLTVLHQDWLNGKEYKCKVSNKALPAPIEKTISKAKGQPREPQVYTLPPSREEMTKNQVSLTCLVKGFYPSDIAVEWESNGQPENNYKTTPPVLDSDGSFFLYSKLTVDKSRWQQGNVFSCSVMHEALHNHYTQKSLSLSPGK
chain 2: DIQMTQSPSSLSASVGDRVTITCKASRDVAIAVAWYQQKPGKVPKLLIYWASTRHTGVPSRFSGSGSRTDFTLTISSLQPEDVADYFCHQYSSYPFTFGSGTKLEIKGGGSGGGGQVQLVESGGGVVQPGRSLRLSCAASGFIFSSYAMHWVRQAPGNGLEWVAFMSYDGSNKKYADSVKGRFTISRDNSKNTLYLQMNSLRAEDTAVYYCARDRGIAAGGNYYYYGMDVWGQGTTVTVSSLGGGSGRTVAAPSVFIFPPSDEQLKSGTASVVCLLNNFYPREAKVQWKVDNALQSGNSQESVTEQDSKDSTYSLSSTLTLSKADYEKHKVYACEVTHQGLSSPVTKSFNRGEC

How the values were obtained:
cynomolgus TNF-alpha = cynomolgus TNF-alpha (cynomolgus, UniProt P79337 77-233, limits assumed); assay: cell-based or functional assay
Chain of cynomolgus TNF-alpha (P79337 77-233 limits assumed): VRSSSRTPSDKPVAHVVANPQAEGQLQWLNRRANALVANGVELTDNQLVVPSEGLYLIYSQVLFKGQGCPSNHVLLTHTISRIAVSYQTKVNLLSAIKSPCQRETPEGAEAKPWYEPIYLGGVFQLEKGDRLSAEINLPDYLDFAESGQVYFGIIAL

membrane bound TNF-alpha [1] = biological target: T3, membrane bound TNF-alpha; assay: flow cytometry, mTNF-transfected Jurkat cells (geomean)
T3 construct: whole, on cells; also called mTNF; membrane expressed TNF-alpha
T3 sequence (P01375 whole entry): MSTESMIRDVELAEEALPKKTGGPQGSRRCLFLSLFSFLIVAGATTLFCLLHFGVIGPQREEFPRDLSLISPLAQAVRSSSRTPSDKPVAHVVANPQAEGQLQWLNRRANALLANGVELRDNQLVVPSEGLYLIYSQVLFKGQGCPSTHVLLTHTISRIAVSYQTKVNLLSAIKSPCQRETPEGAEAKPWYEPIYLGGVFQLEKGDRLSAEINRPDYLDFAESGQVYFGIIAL
Method: (§1) All reagents were prepared in flow cytometry staining buffer (BioLegend). Membrane expressed TNF-alpha transfected cell lines (Jurkat and CHO) and parental cell lines were harvested from tissue culture vessels, washed, counted and resuspended to 1×10̂6 cells/ml in flow cytometry staining buffer. One hundred microliters of the cell suspension was added to 96 well microtiter plates and placed on ice. Titrations of test compounds were prepared and 50 uL was added to the cells. After sixty minute incubation on ice, the cell+test compounds were washed and 50 uL of a secondary antibody (Jackson ImmunoResearch) was added. The samples were incubated in the dark, at 4 C, for 60 minutes, followed by washes. After a final wash the cells were resuspended in 60 uL of fixative (BD Bioscience). Median fluorescence was determined for each sample in a flow cytometer and plotted versus the concentration of the test sample. EC₅₀ values were calculated using the 4 Parameter Logistic enabled by the Excel add-in XLfit (Activity Base software, ID Business Solutions, Ltd.).

membrane bound TNF-alpha [2] = biological target: T3, membrane bound TNF-alpha; assay: flow cytometry, mTNF-transfected CHO cells (geomean)
Method: as §1

recombinant human IL23 [3] = biological target: T1, recombinant human IL23; assay: cell-based or functional assay
recombinant human IL23 [4] = biological target: T1, recombinant human IL23; assay: cell-based or functional assay; remark: listed apart in the source
[5] = biological target: T2, recombinant cynomolgus IL23; assay: cell-based or functional assay
recombinant human IL23 [6] = biological target: T1, recombinant human IL23; assay: cell-based or functional assay; remark: listed apart in the source
recombinant human IL23 [7] = biological target: T1, recombinant human IL23; assay: cell-based or functional assay; remark: listed apart in the source
recombinant human IL23 [8] = biological target: T1, recombinant human IL23; assay: cell-based or functional assay; remark: listed apart in the source
recombinant human IL23 [9] = biological target: T1, recombinant human IL23; assay: cell-based or functional assay; remark: listed apart in the source
human TNF-alpha [10] = biological target: T4, human TNF-alpha (human, UniProt P01375 77-233); assay: cell-based or functional assay
T4 sequence (P01375 77-233 limits assumed): as the sequence (P79337 77-233 limits assumed) above, with V37L, T44R, N72T, L138R counted along it

human TNF-alpha [11] = biological target: T4, human TNF-alpha; assay: cell-based or functional assay; remark: listed apart in the source
human TNF-alpha [12] = biological target: T4, human TNF-alpha; assay: cell-based or functional assay; remark: listed apart in the source
human TNF-alpha [13] = biological target: T4, human TNF-alpha; assay: cell-based or functional assay; remark: listed apart in the source

Binder	HeLa IL8 Cyno-TNF IC50 (cynomolgus TNF-alpha) [nM]	HeLa IL8 Cyno-TNF IC90 (cynomolgus TNF-alpha) [nM]	Dual Phospho DB-pSTAT3 IC50 (recombinant human IL23 [3]) [pM]	Dual Phospho DB-pSTAT3 IC90 (recombinant human IL23 [3]) [pM]	IL23A pSTAT3 (MG) IC50 (recombinant human IL23 [4]) [pM]	IL23A pSTAT3 (MG) IC90 (recombinant human IL23 [4]) [pM]	CynoIL23 MSA IC50 [5] [nM]	CynoIL23 MSA IC90 [5] [nM]	huIL23 MSA IC50 (recombinant human IL23 [6]) [nM]	huIL23 MSA IC90 (recombinant human IL23 [6]) [nM]	IC50, IL-23-dependent STAT3 activation (DB-STAT3Luc10 luciferase) (recombinant human IL23 [7])	hIL23 pSTAT3 DB assay IC50 (recombinant human IL23 [8]) [pM]	hIL23 pSTAT3 DB assay IC90 (recombinant human IL23 [8]) [pM]	GEOMEAN IC50, IL-23-dependent STAT3 activation (luciferase) (recombinant human IL23 [9]) [nM]	GEOMEAN IC90, IL-23-dependent STAT3 activation (luciferase) (recombinant human IL23 [9]) [nM]	HeLa IL8 Hi-Hu-TNF IC50 (human TNF-alpha [10]) [nM]	HeLa IL8 Hi-Hu-TNF IC90 (human TNF-alpha [10]) [nM]	HeLa IL8 Lo-Hu-TNF IC50 (human TNF-alpha [10]) [nM]	HeLa IL8 Lo-Hu-TNF IC90 (human TNF-alpha [10]) [nM]	TNF-IL8 Whole Blood IC50 (human TNF-alpha [11]) [nM]	other results
B1	0.28	1.2																			EC50 (membrane bound TNF-alpha [1]): 0.23 nM; EC50 (membrane bound TNF-alpha [2]): 0.31 nM
B2			89	230	35	140	0.017	0.24	0.053	0.35	0.0965 nM and 0.104 nM and 0.0803 nM	160	310	0.0931	0.191						
B3	0.21	0.81	340	630	69	480	0.097	1.5	0.2	1.4		300	620			0.41	0.81	0.0092	0.036	0.29	TNF-IL8 Whole Blood IC90 (human TNF-alpha [11]): 0.42 nM; Dual Phospho Jurkat-pNf-Kb IC50 (human TNF-alpha [12]): 290 pM; Dual Phospho Jurkat-pNf-Kb IC90 (human TNF-alpha [12]): 340 pM; L929 TNF Cytotox IC50 (human TNF-alpha [13]): 0.0034 nM; L929 TNF Cytotox IC90 (human TNF-alpha [13]): 0.014 nM
B4	0.19	0.74	360	980	90	650	0.069	1.5	0.17	2.3		260	600			0.35	0.66	0.0079	0.039	0.31	TNF-IL8 Whole Blood IC90 (human TNF-alpha [11]): 0.45 nM; Dual Phospho Jurkat-pNf-Kb IC50 (human TNF-alpha [12]): 280 pM; Dual Phospho Jurkat-pNf-Kb IC90 (human TNF-alpha [12]): 760 pM; L929 TNF Cytotox IC50 (human TNF-alpha [13]): 0.0025 nM; L929 TNF Cytotox IC90 (human TNF-alpha [13]): 0.01 nM
B5											0.22 nM			0.203	0.831						IC90, IL-23-dependent STAT3 activation (DB-STAT3Luc10 luciferase) (recombinant human IL23 [7]): 1.15 nM; First test IC50, IL-23-dependent STAT3 activation (luciferase) (recombinant human IL23 [9]): 0.187 nM
